Measurements published in patent US20150064134A1.

Tests used:
Assay in all cases: cell-based or functional assay
[1] = molecular target: ALK(h) (human) (UniProt Q9UM73)
[2] = molecular target: CK2(h) (human) (UniProt P68400)
[3] = molecular target: CaMKIIδ(h) (human) (UniProt Q13557)
[4] = molecular target: CaMKIδ(h) (human) (UniProt Q8IU85)
[5] = molecular target: DYRK2(h) (human) (UniProt Q92630)
[6] = molecular target: EGFR(h) (human) (UniProt P00533)
[7] = molecular target: T1, EphA1(h) (human) (UniProt P21709)
T1 sequence (looked up): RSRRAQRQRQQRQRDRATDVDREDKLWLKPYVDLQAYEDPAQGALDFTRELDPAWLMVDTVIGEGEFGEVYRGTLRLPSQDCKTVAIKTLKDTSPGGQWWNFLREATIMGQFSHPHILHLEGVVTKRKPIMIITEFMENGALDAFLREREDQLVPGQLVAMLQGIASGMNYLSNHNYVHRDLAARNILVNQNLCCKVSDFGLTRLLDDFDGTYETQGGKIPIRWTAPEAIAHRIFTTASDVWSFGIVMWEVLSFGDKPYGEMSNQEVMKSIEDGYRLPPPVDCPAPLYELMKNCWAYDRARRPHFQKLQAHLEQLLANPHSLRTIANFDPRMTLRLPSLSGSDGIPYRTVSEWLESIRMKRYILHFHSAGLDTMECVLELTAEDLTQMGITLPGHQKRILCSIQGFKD

[8] = molecular target: EphA4(h) (human) (UniProt P54764)
[9] = molecular target: EphB1(h) (human) (UniProt P54762)
[10] = molecular target: FGFR1(h) (human) (UniProt P11362)
[11] = molecular target: HIPK2(h) (human) (UniProt Q9H2X6)
[12] = molecular target: KDR(h) (human) (UniProt P35968)
[13] = molecular target: LIMK1(h) (human) (UniProt P53667)
[14] = molecular target: Met(Y1248C)(h) (human) (UniProt P08581)
[15] = molecular target: MuSK(h) (human) (UniProt O15146)
[16] = molecular target: T2, PDK1(h) (human) (UniProt O15530)
T2 sequence (looked up): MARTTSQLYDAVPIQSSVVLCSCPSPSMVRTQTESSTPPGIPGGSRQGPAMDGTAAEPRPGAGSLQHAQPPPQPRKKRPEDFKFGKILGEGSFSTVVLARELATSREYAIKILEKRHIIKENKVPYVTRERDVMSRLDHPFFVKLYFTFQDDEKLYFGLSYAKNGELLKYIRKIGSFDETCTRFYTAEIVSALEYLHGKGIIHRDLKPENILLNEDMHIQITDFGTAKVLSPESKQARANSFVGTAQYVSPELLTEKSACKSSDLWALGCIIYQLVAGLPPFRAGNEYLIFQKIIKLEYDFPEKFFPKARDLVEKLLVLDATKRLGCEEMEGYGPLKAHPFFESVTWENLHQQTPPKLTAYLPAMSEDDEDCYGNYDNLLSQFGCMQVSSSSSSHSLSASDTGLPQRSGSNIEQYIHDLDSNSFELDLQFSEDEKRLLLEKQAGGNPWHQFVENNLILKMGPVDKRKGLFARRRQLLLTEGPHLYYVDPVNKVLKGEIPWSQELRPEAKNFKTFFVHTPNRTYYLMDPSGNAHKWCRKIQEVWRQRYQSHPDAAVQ

[17] = molecular target: PKCα(h) (human) (UniProt P17252)
[18] = molecular target: T3, PKCζ(h) (human) (UniProt Q05513)
T3 sequence (looked up): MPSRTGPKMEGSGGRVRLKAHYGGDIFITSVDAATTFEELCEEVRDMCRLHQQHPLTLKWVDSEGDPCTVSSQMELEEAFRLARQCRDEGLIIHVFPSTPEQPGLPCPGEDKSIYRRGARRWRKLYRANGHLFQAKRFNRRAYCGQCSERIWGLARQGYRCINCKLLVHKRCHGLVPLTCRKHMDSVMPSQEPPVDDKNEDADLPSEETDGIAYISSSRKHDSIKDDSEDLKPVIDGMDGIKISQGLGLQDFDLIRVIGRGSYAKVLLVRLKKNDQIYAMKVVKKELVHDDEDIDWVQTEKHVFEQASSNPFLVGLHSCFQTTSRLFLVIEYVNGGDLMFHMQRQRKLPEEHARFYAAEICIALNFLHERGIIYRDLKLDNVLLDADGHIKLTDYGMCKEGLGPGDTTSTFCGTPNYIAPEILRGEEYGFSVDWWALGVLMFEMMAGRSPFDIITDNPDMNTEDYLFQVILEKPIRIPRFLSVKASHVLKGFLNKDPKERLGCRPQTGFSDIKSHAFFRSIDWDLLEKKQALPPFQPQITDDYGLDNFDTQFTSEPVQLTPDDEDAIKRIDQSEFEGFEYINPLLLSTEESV

[19] = molecular target: Ron(h) (human) (UniProt Q04912)
[20] = molecular target: T4, SGK3(h) (human) (UniProt Q96BR1)
T4 sequence (looked up): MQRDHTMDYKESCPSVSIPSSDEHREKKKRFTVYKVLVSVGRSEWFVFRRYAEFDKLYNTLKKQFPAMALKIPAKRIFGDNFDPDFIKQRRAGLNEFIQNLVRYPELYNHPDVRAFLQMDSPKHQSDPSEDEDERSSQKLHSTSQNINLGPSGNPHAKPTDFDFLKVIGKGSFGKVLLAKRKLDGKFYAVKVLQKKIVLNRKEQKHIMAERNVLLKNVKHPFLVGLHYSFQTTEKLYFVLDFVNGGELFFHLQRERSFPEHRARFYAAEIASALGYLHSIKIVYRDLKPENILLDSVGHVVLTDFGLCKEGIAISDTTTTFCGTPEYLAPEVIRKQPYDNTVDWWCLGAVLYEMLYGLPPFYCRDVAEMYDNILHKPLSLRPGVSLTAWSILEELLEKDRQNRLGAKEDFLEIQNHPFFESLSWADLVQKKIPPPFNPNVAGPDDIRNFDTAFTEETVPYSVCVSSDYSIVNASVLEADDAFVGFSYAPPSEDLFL

[21] = molecular target: SRPK1(h) (human) (UniProt Q96SB4)
[22] = molecular target: STK33(h) (human) (UniProt Q9BYT3)

Chain of Ron(h) (human) (Q04912 983-1400 limits assumed): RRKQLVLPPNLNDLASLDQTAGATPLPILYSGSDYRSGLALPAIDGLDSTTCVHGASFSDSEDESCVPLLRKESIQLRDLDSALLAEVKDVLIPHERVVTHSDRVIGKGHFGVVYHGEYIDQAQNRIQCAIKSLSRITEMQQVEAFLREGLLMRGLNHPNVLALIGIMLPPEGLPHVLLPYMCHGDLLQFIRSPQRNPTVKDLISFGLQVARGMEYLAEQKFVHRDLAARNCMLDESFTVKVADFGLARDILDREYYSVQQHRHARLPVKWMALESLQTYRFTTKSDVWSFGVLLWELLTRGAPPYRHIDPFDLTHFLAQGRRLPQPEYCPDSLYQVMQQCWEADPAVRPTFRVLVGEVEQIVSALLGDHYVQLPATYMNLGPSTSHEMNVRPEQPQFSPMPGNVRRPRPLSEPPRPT
Chain of EphB1(h) (human) (P54762 564-984 limits assumed): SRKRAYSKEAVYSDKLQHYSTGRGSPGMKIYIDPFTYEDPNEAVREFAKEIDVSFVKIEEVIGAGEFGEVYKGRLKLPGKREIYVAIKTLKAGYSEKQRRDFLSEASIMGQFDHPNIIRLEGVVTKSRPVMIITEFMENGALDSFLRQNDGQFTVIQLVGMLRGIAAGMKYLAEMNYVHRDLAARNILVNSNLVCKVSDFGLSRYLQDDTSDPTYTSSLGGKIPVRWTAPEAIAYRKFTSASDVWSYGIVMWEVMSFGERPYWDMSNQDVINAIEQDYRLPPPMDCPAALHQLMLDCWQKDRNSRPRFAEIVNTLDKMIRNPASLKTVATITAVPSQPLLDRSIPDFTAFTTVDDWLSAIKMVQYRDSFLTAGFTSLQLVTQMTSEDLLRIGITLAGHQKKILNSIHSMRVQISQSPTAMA
Chain of FGFR1(h) (human) (P11362 456-765 limits assumed): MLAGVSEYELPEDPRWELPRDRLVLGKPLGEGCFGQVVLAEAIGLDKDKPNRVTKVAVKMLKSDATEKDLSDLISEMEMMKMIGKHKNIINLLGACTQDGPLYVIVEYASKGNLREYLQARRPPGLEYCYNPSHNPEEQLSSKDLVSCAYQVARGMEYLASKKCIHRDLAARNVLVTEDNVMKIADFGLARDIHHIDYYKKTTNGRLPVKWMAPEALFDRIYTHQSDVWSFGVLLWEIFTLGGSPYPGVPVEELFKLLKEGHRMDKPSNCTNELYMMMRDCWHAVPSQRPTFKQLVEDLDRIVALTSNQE
Chain of EphA4(h) (human) (P54764 570-986 limits assumed): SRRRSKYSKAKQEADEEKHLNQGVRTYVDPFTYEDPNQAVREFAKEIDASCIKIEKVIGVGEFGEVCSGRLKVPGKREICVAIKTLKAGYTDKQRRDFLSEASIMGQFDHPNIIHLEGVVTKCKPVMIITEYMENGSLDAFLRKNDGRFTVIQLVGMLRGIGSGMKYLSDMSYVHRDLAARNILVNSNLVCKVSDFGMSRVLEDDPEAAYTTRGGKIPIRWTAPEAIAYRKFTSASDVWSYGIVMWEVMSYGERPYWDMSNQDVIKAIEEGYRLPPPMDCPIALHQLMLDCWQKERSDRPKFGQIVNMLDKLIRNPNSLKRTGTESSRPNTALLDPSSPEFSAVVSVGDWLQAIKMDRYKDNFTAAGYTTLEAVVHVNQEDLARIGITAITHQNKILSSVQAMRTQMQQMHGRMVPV

| % activity at 100 µM [1] | % activity at 100 µM [2] | % activity at 100 µM [3] | % activity at 100 µM [4] | % activity at 100 µM [5] | % activity at 100 µM [6] | % activity at 100 µM [7] | % activity at 100 µM [8] | % activity at 100 µM [9] | % activity at 100 µM [10] | % activity at 100 µM [11] | % activity at 100 µM [12] | % activity at 100 µM [13] | % activity at 100 µM [14] | % activity at 100 µM [15] | % activity at 100 µM [16] | % activity at 100 µM [17] | % activity at 100 µM [18] | % activity at 100 µM [19] | % activity at 100 µM [20] | Substance | also measured |
| --- | --- | --- | --- | --- | --- | --- | --- | --- | --- | --- | --- | --- | --- | --- | --- | --- | --- | --- | --- | --- | --- |
| 19% | 90% | 1% | 10% | 155% | 21% | 73% | 88% | 44% | 55% | 73% | 101% | 88% | 84% | 93% | 135% | 89% | 81% | 93% | 10% | MMI-0300 (peptide) | % activity at 100 µM [21]: 90%; % activity at 100 µM [22]: 45% |
| 16% | 101% | 2% | 17% | 195% | 16% | 61% | 65% | 58% | 59% | 90% | 94% | 92% | 36% | 93% | 159% | 86% | 75% | 79% | 8% | MMI-0400 (peptide) | % activity at 100 µM [21]: 96%; % activity at 100 µM [22]: 52% |
| 12% | 93% | 1% | 0% | 127% | -1% | 40% | 48% | 37% | 18% | 38% | 15% | 87% | 73% | 27% | 178% | 3% | 7% | 46% | -3% | MMI-0500 (peptide) | % activity at 100 µM [21]: 80%; % activity at 100 µM [22]: 16% |
